Experimental data published in article PMC12135134.

Molecular target: recombinant human IgG1 Fc fragment (recFc), residues 236–444 of the rituximab heavy chain, non-glycosylated homodimer (human)
Test: crystal structure; co-crystal of the complex isolated by SEC after mixing affitin and Fc chain 4:1; hanging drop, 20 °C, 24% w/v PEG8000, 0.1 M Tris/HCl pH 8.5; space group P2_(1), 2.90 Å

## recombinant human IgG1 Fc fragment (recFc), residues 236–444 of the rituximab heavy chain, non-glycosylated homodimer (domain or fragment)
  stoichiometry N (chains in the oligomer): 2
